# Laboratory results reported in the RNAGym collection of RNA variant scans (doi:10.1073/pnas.2313332121).
# Variants at the floor of the assay were thinned out.
# B1: TPR 5TU (parent)
# chain: GGAUCUUCUCGAUCUAACAAAAAAGACAAAUCUGCCACAAAGCUUGAGAGCAUCUUCGGAUGCAGAGGCGGCAGCCUUCGGUGGCGCGAUAGCGCCAACGUUCUCAACUAUGACACGCAAAACGCGUGCUCCGUUGAAUGGAGUUUAUCAUG
# Variants of: B1
# Experiment: polymerase ribozyme fitness, log enrichment relative to wild type (log ratio); higher = more active; in vitro selection for triplet polymerase activity
# In short: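 Libraries of mutants in each subunit of a heterodimeric triplet polymerase ribozyme were generated by PCR and transcribed. In triplicate, each went through one in vitro selection round: annealing with biotinylated primer, partner subunit and triplets; frozen incubation at −7 °C; gel excision of extended constructs; streptavidin-bead capture; RT-PCR. Fitness, taken from Illumina sequencing of input and output libraries, is the logarithm of a genotype's enrichment over wild-type enrichment, averaged across replicates with inverse-variance weights. The logarithm is base 2, and genotypes needed ≥10 input reads and ≥1 read per output to be kept.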
row,Variant,polymerase ribozyme fitness (log ratio)
1,G71U C93U,-3.57
2,G74C C99U,≤ -4.2
3,C72U U101C,0.482
4,G71C C79U A91C U135G,≤ -4.2
5,A73G U130C,0.842
6,A73G G94U A106G,-0.312
7,G70A G124C U144C,≤ -4.2
8,G80A G94C C125A G143A,≤ -4.2
9,G74A C96G,-2.97
10,C72U C87A G117C G143U,≤ -4.2
11,C75G C85A C103U A107G A122C,≤ -4.2
12,C79A G141C,-3.95
13,C79A C93A,-4.12
14,A73C C96A,-3.14
15,C76A U127A,-3.75
16,A73G C75U C99A U101G A142G,≤ -4.2
17,C75U C85U U135G U146A,-3.82
18,C76U U102G,-2.89
19,U77A G84A C85U,≤ -4.2
20,C79G C87U,-3.7
21,U78C G83C G126A,-0.883
22,A73U U144C,-1.49
23,G71A G140U U148C,≤ -4.2
24,C75U A97G C131U U135G,-3.18

row,Variant,polymerase ribozyme fitness (log ratio)
1,C72G A73C U102G C103G,≤ -4.2
2,G81A A97G A115G,-0.993
3,G74A G86C G100C C103G C105A U151A,≤ -4.2
4,C75A G86A U104G A106G,≤ -4.2
5,G80C C85A G94C C132U G141U U148C,≤ -4.2
6,A73G G92C C96A,-2.51
7,C69U A97G G141A,-0.875
8,U78A C93A G94U G140A G143A,≤ -4.2
9,A73G C87G G88C G124C U127G G143C U144A,≤ -4.2
10,C76G G83U U90A G128U U135G,≤ -4.2
11,G71C C87U,-3.34
12,G80C G81U,0.0733
13,C76U G86C,-0.716
14,A73G G88C A107U C129U U139C U148A,≤ -4.2
15,C76A U82C U90C G94C C116U G143A,≤ -4.2
16,A73G C149A,≤ -4.2
17,C76A G94C,-0.703
18,G74U G83C G94C,≤ -4.2
19,A73G C85A U109G,-2.78
20,A73C U127A U144G,≤ -4.2
21,C75U C96U,-0.743
22,C76U A147U,0.639
23,A73C G92U C116G U144C,≤ -4.2
24,A73G G86A A150G,≤ -4.2

row,Variant,polymerase ribozyme fitness (log ratio)
1,A73G G81A G83A C96A A119U G124C,≤ -4.2
2,G70C A98U,-2.78
3,C76U U77G A147G,≤ -4.2
4,U78G U148C,-4.15
5,G70A G86A U90G C93G A110U C114U U134A,≤ -4.2
6,G80C G128C,-3.87
7,C76G U144A,≤ -4.2
8,G70A G94U C96G A142C U148A,≤ -4.2
9,C69G G71U G140A,≤ -4.2
10,C76U G128U,-3.27
11,U77C G92C U139C A150U,≤ -4.2
12,G74A U90C G94A A98U,≤ -4.2
13,C75U G83C A138U A142G,≤ -4.2
14,G80C A113G U134A,≤ -4.2
15,C76A G92U,-2.07
16,C72U U146G,-0.793
17,C75G C93A C108G C132A G140A G143A,-4.12
18,C75G,-3.24
19,C75A,-3.85
20,C75U,-0.0565
21,C76A C85U U144C,-0.235
22,C69U C93A C103U C116A U148G,≤ -4.2
23,A73G G83C C95G A120C A122G,≤ -4.2
24,C72A C93A,≤ -4.2

row,Variant,polymerase ribozyme fitness (log ratio)
1,C76A G92C A98U A142U,-2.32
2,C75G C87U,-3.2
3,C76A C87U U139G U144A,-2.07
4,C75G U82G C87U C131G U134A,≤ -4.2
5,G80A G83C,-3.01
6,C75U C79G,-4.07
7,U78G C79A C108U,≤ -4.2
8,G80C G81C C96A U134A,≤ -4.2
9,C69G C108U U148A,≤ -4.2
10,C79U G141A,-2.05
11,C79U C87A C96U A98C G141C,≤ -4.2
12,C79U G94C,-3.64
13,G70A C93A C123U,≤ -4.2
14,G74A G92C C149A,≤ -4.2
15,G74C U130A,≤ -4.2
16,G71A C132U,-3.5
17,A73U C79G A107U A113C,≤ -4.2
18,C75G G88A A98U C103U,≤ -4.2
19,C75U C85G C103A A107U U146G A147U A150G,≤ -4.2
20,G70A G81U,-3.25
21,G71U C85U,-1.67
22,A73U G81A C118G A120U U135A,-3.75
23,C69G A73G,-2.59
24,G70U,-1.81

row,Variant,polymerase ribozyme fitness (log ratio)
1,G70A,-2.75
2,G70C,-2.92
3,A73G G83C U145G,-2.01
4,G71A G84U U101C A142C,≤ -4.2
5,G70A C105A C123A,≤ -4.2
6,C79U G83A A107G A110G U144G,≤ -4.2
7,G71C G94A,-3.93
8,A73G A106C G141U,-1.34
9,G80U C93G,-2.97
10,U77A A113U,≤ -4.2
11,G81A A120G U148C,-2.99
12,A73G A137C U145G,-3.74
13,C76U C95U C96U G124U,-1.17
14,A73G G84A,-0.268
15,C72U C75U C87A U90A C95G U102G A150G,≤ -4.2
16,C75U C87U,0.0996
17,C69U U102C,-2.59
18,C76G C93A C96A G136C,≤ -4.2
19,C69U G86A,-1.13
20,C76A C85A C95A A120G,-2.33
21,C72U A89C C95U C105U,-1.12
22,A73U U148C G152C,≤ -4.2
23,C75A C79G C93A,-4.11
24,C75A C129G U146C,≤ -4.2

row,Variant,polymerase ribozyme fitness (log ratio)
1,C76A G86A A89U G133C U145G,≤ -4.2
2,C76U C85G C125U U139G,≤ -4.2
3,C75U A113U G124U U144C,≤ -4.2
4,G80A C85U C118A,-0.52
5,A73G G94A A97U A120U,-1.74
6,A73C C87A,≤ -4.2
7,C72G C96U,-4.02
8,C75A A137C A150U,≤ -4.2
9,C75G G81A A122G,≤ -4.2
10,C75U G133U,-3.54
11,G80A U82G,0.0436
12,G80C A115U,≤ -4.2
13,C75U A89G,-0.933
14,G80A A113C U145A,-3.89
15,C75U A110C U146G,≤ -4.2
16,G80A C85A A138G,-3.67
17,U77C G143U,-4.09
18,G74A C103G,≤ -4.2
19,A73U A115G,-2.08
20,C79G C87G C114G,≤ -4.2
21,U77A G84A C85U C129A,≤ -4.2
22,C69U C87A U90A G117U,≤ -4.2
23,A73U G81A A122U,-0.858
24,G81A C95A A147C,0.16

row,Variant,polymerase ribozyme fitness (log ratio)
1,G71C G83A G117C C129A,≤ -4.2
2,C79U C96U,-3.43
3,C76A C87U G140C,≤ -4.2
4,C79G A122U,-3.58
5,G80C U82G C87U C99G,0.273
6,G80C G88C C103A A122U A138G,≤ -4.2
7,A73U C116G,-2.81
8,A73U A97U A115G,-3.45
9,C69U U78G C96G U134A U135C,≤ -4.2
10,G70A C87A C99A,≤ -4.2
11,C75U G83A A98C U134A U135A,-3.58
12,C79U G80C C85U C93U,≤ -4.2
13,G80U G86U U111C,≤ -4.2
14,G71A A91G C93U,≤ -4.2
15,C72U U77C C118G,≤ -4.2
16,U78G G126U,≤ -4.2
17,C75G G81U C95A G152U,≤ -4.2
18,C79G G81U C95U A107U C108U,≤ -4.2
19,C76A A91G A120G,-3.67
20,C75G G141C,-4.12
21,C69U C95U U101G G152C,-3.5
22,C76A G141C,-2.39
23,G80U A119C C123A,-1.18
